B1: CIgG4B2A1(G4S)1 (Fc fusion)
chain 1: GPPCPPCPAPEFLGGPSVFLFPPKPKDTLMISRTPEVTCVVVDVSQEDPEVQFNWYVDGVEVHNAKTKPREEQFNSTYRVVSVLTVLHQDWLNGKEYKCKVSNKGLPSSIEKTISKAKGQPREPQVYTLPPCQEEMTKNQVSLWCLVKGFYPSDIAVEWESNGQPENNYKTTPPVLDSDGSFFLYSRLTVDKSRWQEGNVFSCSVMHEALHNHYTQKSLSLSLGKGGGGSQVQLVESGGGLVQAGGSLRLSCAVFGSTFSNNVADWYRQAPGKQRELVARISASGATREYGDSVKGRFTISRDDAKNTMYLQMNNLKPEDTAVYRCHKIEWEDLSRKDYWGQGTQVTVS
chain 2: GPPCPPCPAPEFLGGPSVFLFPPKPKDTLMISRTPEVTCVVVDVSQEDPEVQFNWYVDGVEVHNAKTKPREEQFNSTYRVVSVLTVLHQDWLNGKEYKCKVSNKGLPSSIEKTISKAKGQPREPQVCTLPPSQEEMTKNQVSLSCAVKGFYPSDIAVEWESNGQPENNYKTTPPVLDSDGSFFLVSRLTVDKSRWQEGNVFSCSVMHEALHNHYTQKSLSLSLGKGGGGSEVQLLESGGGLVQPGGSLRLSCAASGFTFGNYDMAWVRQAPGKRPEWVSSIDTGGDITHYADSVKGRFTISRDNAKNTLYLQMNSLRPEDTAVYWCATDEEYALGPNEFDYYGQGTLVTVSS
B2: NIgG4B2A1(G4S)3 (Fc fusion)
chain 1: QVQLVESGGGLVQAGGSLRLSCAVFGSTFSNNVADWYRQAPGKQRELVARISASGATREYGDSVKGRFTISRDDAKNTMYLQMNNLKPEDTAVYRCHKIEWEDLSRKDYWGQGTQVTVSGGGGSGGGGSGGGGSGPPCPPCPAPEFLGGPSVFLFPPKPKDTLMISRTPEVTCVVVDVSQEDPEVQFNWYVDGVEVHNAKTKPREEQFNSTYRVVSVLTVLHQDWLNGKEYKCKVSNKGLPSSIEKTISKAKGQPREPQVYTLPPCQEEMTKNQVSLWCLVKGFYPSDIAVEWESNGQPENNYKTTPPVLDSDGSFFLYSRLTVDKSRWQEGNVFSCSVMHEALHNHYTQKSLSLSLGK
chain 2: EVQLLESGGGLVQPGGSLRLSCAASGFTFGNYDMAWVRQAPGKRPEWVSSIDTGGDITHYADSVKGRFTISRDNAKNTLYLQMNSLRPEDTAVYWCATDEEYALGPNEFDYYGQGTLVTVSSGGGGSGGGGSGGGGSGPPCPPCPAPEFLGGPSVFLFPPKPKDTLMISRTPEVTCVVVDVSQEDPEVQFNWYVDGVEVHNAKTKPREEQFNSTYRVVSVLTVLHQDWLNGKEYKCKVSNKGLPSSIEKTISKAKGQPREPQVCTLPPSQEEMTKNQVSLSCAVKGFYPSDIAVEWESNGQPENNYKTTPPVLDSDGSFFLVSRLTVDKSRWQEGNVFSCSVMHEALHNHYTQKSLSLSLGK
B3: NIgG4B2A1(G4S)2 (Fc fusion)
chain 1: QVQLVESGGGLVQAGGSLRLSCAVFGSTFSNNVADWYRQAPGKQRELVARISASGATREYGDSVKGRFTISRDDAKNTMYLQMNNLKPEDTAVYRCHKIEWEDLSRKDYWGQGTQVTVSGGGGSGGGGSGPPCPPCPAPEFLGGPSVFLFPPKPKDTLMISRTPEVTCVVVDVSQEDPEVQFNWYVDGVEVHNAKTKPREEQFNSTYRVVSVLTVLHQDWLNGKEYKCKVSNKGLPSSIEKTISKAKGQPREPQVYTLPPCQEEMTKNQVSLWCLVKGFYPSDIAVEWESNGQPENNYKTTPPVLDSDGSFFLYSRLTVDKSRWQEGNVFSCSVMHEALHNHYTQKSLSLSLGK
chain 2: EVQLLESGGGLVQPGGSLRLSCAASGFTFGNYDMAWVRQAPGKRPEWVSSIDTGGDITHYADSVKGRFTISRDNAKNTLYLQMNSLRPEDTAVYWCATDEEYALGPNEFDYYGQGTLVTVSSGGGGSGGGGSGPPCPPCPAPEFLGGPSVFLFPPKPKDTLMISRTPEVTCVVVDVSQEDPEVQFNWYVDGVEVHNAKTKPREEQFNSTYRVVSVLTVLHQDWLNGKEYKCKVSNKGLPSSIEKTISKAKGQPREPQVCTLPPSQEEMTKNQVSLSCAVKGFYPSDIAVEWESNGQPENNYKTTPPVLDSDGSFFLVSRLTVDKSRWQEGNVFSCSVMHEALHNHYTQKSLSLSLGK
B4: NIgG4B2A1(RS) (Fc fusion)
chain 1: QVQLVESGGGLVQAGGSLRLSCAVFGSTFSNNVADWYRQAPGKQRELVARISASGATREYGDSVKGRFTISRDDAKNTMYLQMNNLKPEDTAVYRCHKIEWEDLSRKDYWGQGTQVTVSRSGPPCPPCPAPEFLGGPSVFLFPPKPKDTLMISRTPEVTCVVVDVSQEDPEVQFNWYVDGVEVHNAKTKPREEQFNSTYRVVSVLTVLHQDWLNGKEYKCKVSNKGLPSSIEKTISKAKGQPREPQVYTLPPCQEEMTKNQVSLWCLVKGFYPSDIAVEWESNGQPENNYKTTPPVLDSDGSFFLYSRLTVDKSRWQEGNVFSCSVMHEALHNHYTQKSLSLSLGK
chain 2: EVQLLESGGGLVQPGGSLRLSCAASGFTFGNYDMAWVRQAPGKRPEWVSSIDTGGDITHYADSVKGRFTISRDNAKNTLYLQMNSLRPEDTAVYWCATDEEYALGPNEFDYYGQGTLVTVSSRSGPPCPPCPAPEFLGGPSVFLFPPKPKDTLMISRTPEVTCVVVDVSQEDPEVQFNWYVDGVEVHNAKTKPREEQFNSTYRVVSVLTVLHQDWLNGKEYKCKVSNKGLPSSIEKTISKAKGQPREPQVCTLPPSQEEMTKNQVSLSCAVKGFYPSDIAVEWESNGQPENNYKTTPPVLDSDGSFFLVSRLTVDKSRWQEGNVFSCSVMHEALHNHYTQKSLSLSLGK
B5: CIgG4B1A2(G4S)2 (Fc fusion)
chain 1: GPPCPPCPAPEFLGGPSVFLFPPKPKDTLMISRTPEVTCVVVDVSQEDPEVQFNWYVDGVEVHNAKTKPREEQFNSTYRVVSVLTVLHQDWLNGKEYKCKVSNKGLPSSIEKTISKAKGQPREPQVYTLPPCQEEMTKNQVSLWCLVKGFYPSDIAVEWESNGQPENNYKTTPPVLDSDGSFFLYSRLTVDKSRWQEGNVFSCSVMHEALHNHYTQKSLSLSLGKGGGGSGGGGSQVQLQESGGGLVQTGGSLRLSCAVHGRTFSNTGMGWFRQAPGNERQFVAIISPSGTSTYYADSVKGRFTISRDPAKNTVYLQMNSLKMDDTAVYYCAASYGSNWSTLRHQRRNEYDAWGQGTQVAVS
chain 2: GPPCPPCPAPEFLGGPSVFLFPPKPKDTLMISRTPEVTCVVVDVSQEDPEVQFNWYVDGVEVHNAKTKPREEQFNSTYRVVSVLTVLHQDWLNGKEYKCKVSNKGLPSSIEKTISKAKGQPREPQVCTLPPSQEEMTKNQVSLSCAVKGFYPSDIAVEWESNGQPENNYKTTPPVLDSDGSFFLVSRLTVDKSRWQEGNVFSCSVMHEALHNHYTQKSLSLSLGKGGGGSGGGGSEVQLLESGGGLVQPGGSLRLSCAASGFRFGNYDMAWVRQAPGKRYEWVSSIDTGGDITHYADSVKGRFTISRDNAKNTLYLQMNSLRPEDTAEYWCATDEEYALGPNEFDYYGQGTLVTVS
B6: CIgG4B2A1(RS) (Fc fusion)
chain 1: GPPCPPCPAPEFLGGPSVFLFPPKPKDTLMISRTPEVTCVVVDVSQEDPEVQFNWYVDGVEVHNAKTKPREEQFNSTYRVVSVLTVLHQDWLNGKEYKCKVSNKGLPSSIEKTISKAKGQPREPQVYTLPPCQEEMTKNQVSLWCLVKGFYPSDIAVEWESNGQPENNYKTTPPVLDSDGSFFLYSRLTVDKSRWQEGNVFSCSVMHEALHNHYTQKSLSLSLGKRSQVQLVESGGGLVQAGGSLRLSCAVFGSTFSNNVADWYRQAPGKQRELVARISASGATREYGDSVKGRFTISRDDAKNTMYLQMNNLKPEDTAVYRCHKIEWEDLSRKDYWGQGTQVTVS
chain 2: GPPCPPCPAPEFLGGPSVFLFPPKPKDTLMISRTPEVTCVVVDVSQEDPEVQFNWYVDGVEVHNAKTKPREEQFNSTYRVVSVLTVLHQDWLNGKEYKCKVSNKGLPSSIEKTISKAKGQPREPQVCTLPPSQEEMTKNQVSLSCAVKGFYPSDIAVEWESNGQPENNYKTTPPVLDSDGSFFLVSRLTVDKSRWQEGNVFSCSVMHEALHNHYTQKSLSLSLGKRSEVQLLESGGGLVQPGGSLRLSCAASGFTFGNYDMAWVRQAPGKRPEWVSSIDTGGDITHYADSVKGRFTISRDNAKNTLYLQMNSLRPEDTAVYWCATDEEYALGPNEFDYYGQGTLVTVSS
B7: CIgG4B1A2(G4S)3 (Fc fusion)
chain 1: GPPCPPCPAPEFLGGPSVFLFPPKPKDTLMISRTPEVTCVVVDVSQEDPEVQFNWYVDGVEVHNAKTKPREEQFNSTYRVVSVLTVLHQDWLNGKEYKCKVSNKGLPSSIEKTISKAKGQPREPQVYTLPPCQEEMTKNQVSLWCLVKGFYPSDIAVEWESNGQPENNYKTTPPVLDSDGSFFLYSRLTVDKSRWQEGNVFSCSVMHEALHNHYTQKSLSLSLGKGGGGSGGGGSGGGGSQVQLQESGGGLVQTGGSLRLSCAVHGRTFSNTGMGWFRQAPGNERQFVAIISPSGTSTYYADSVKGRFTISRDPAKNTVYLQMNSLKMDDTAVYYCAASYGSNWSTLRHQRRNEYDAWGQGTQVAVS
chain 2: GPPCPPCPAPEFLGGPSVFLFPPKPKDTLMISRTPEVTCVVVDVSQEDPEVQFNWYVDGVEVHNAKTKPREEQFNSTYRVVSVLTVLHQDWLNGKEYKCKVSNKGLPSSIEKTISKAKGQPREPQVCTLPPSQEEMTKNQVSLSCAVKGFYPSDIAVEWESNGQPENNYKTTPPVLDSDGSFFLVSRLTVDKSRWQEGNVFSCSVMHEALHNHYTQKSLSLSLGKGGGGSGGGGSGGGGSEVQLLESGGGLVQPGGSLRLSCAASGFRFGNYDMAWVRQAPGKRYEWVSSIDTGGDITHYADSVKGRFTISRDNAKNTLYLQMNSLRPEDTAEYWCATDEEYALGPNEFDYYGQGTLVTVS
B8: NIgG4B2A1(G4S)1 (Fc fusion)
chain 1: QVQLVESGGGLVQAGGSLRLSCAVFGSTFSNNVADWYRQAPGKQRELVARISASGATREYGDSVKGRFTISRDDAKNTMYLQMNNLKPEDTAVYRCHKIEWEDLSRKDYWGQGTQVTVSGGGGSGPPCPPCPAPEFLGGPSVFLFPPKPKDTLMISRTPEVTCVVVDVSQEDPEVQFNWYVDGVEVHNAKTKPREEQFNSTYRVVSVLTVLHQDWLNGKEYKCKVSNKGLPSSIEKTISKAKGQPREPQVYTLPPCQEEMTKNQVSLWCLVKGFYPSDIAVEWESNGQPENNYKTTPPVLDSDGSFFLYSRLTVDKSRWQEGNVFSCSVMHEALHNHYTQKSLSLSLGK
chain 2: EVQLLESGGGLVQPGGSLRLSCAASGFTFGNYDMAWVRQAPGKRPEWVSSIDTGGDITHYADSVKGRFTISRDNAKNTLYLQMNSLRPEDTAVYWCATDEEYALGPNEFDYYGQGTLVTVSSGGGGSGPPCPPCPAPEFLGGPSVFLFPPKPKDTLMISRTPEVTCVVVDVSQEDPEVQFNWYVDGVEVHNAKTKPREEQFNSTYRVVSVLTVLHQDWLNGKEYKCKVSNKGLPSSIEKTISKAKGQPREPQVCTLPPSQEEMTKNQVSLSCAVKGFYPSDIAVEWESNGQPENNYKTTPPVLDSDGSFFLVSRLTVDKSRWQEGNVFSCSVMHEALHNHYTQKSLSLSLGK

Target: T1, recombinant human IgE (human, UniProt P01854-1 1-428)
T1 construct: made in-house (ALK); preloaded on immobilised FcεRIα in the displacement ELISA
Test: IgE-FcεRIα displacement ELISA
How it was run: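 sdAbs at pM–μM were incubated 1 h on preformed complexes of 13 ng/ml recombinant human IgE with avi-tag-biotinylated human FcεRIα captured on streptavidin.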

T1 sequence (P01854 other isoform, or with tags, fused parts or gaps): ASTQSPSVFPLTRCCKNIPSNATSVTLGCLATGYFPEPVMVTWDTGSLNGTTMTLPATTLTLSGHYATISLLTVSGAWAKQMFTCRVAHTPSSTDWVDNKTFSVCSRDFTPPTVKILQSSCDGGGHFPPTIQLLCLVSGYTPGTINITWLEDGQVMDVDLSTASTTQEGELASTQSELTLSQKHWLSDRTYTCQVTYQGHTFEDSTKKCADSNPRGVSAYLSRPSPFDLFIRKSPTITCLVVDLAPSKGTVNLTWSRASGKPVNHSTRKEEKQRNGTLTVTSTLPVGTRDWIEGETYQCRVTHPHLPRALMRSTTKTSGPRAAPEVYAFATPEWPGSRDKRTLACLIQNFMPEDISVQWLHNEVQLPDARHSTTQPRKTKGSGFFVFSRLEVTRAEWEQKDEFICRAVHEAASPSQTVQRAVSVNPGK

Row | Binder | EC50 | Max effect
1 | B1 | 0.8 nM | > 95%
2 | B2 | – | > 95%
3 | B3 | – | > 95%
4 | B4 | – | > 95%
5 | B5 | 2.7 nM | > 95%
6 | B6 | 130 nM | 70%
7 | B7 | 2.5 nM | > 95%
8 | B8 | – | > 95%

— patent US20250171562A1 (ALK ABELL, published 2025)
